According to patent US7202329 (MYRIAD GENETICS, dated 2007):

Columns and labels:
[1] = biological target: T1, GTPase-activating protein 1 (aa 1299-1555) (UniProt P46940 1299-1555); test: yeast two-hybrid
T1 construct: range 1299-1555; also called IQGAP1; IQGAP
T1 sequence (looked up): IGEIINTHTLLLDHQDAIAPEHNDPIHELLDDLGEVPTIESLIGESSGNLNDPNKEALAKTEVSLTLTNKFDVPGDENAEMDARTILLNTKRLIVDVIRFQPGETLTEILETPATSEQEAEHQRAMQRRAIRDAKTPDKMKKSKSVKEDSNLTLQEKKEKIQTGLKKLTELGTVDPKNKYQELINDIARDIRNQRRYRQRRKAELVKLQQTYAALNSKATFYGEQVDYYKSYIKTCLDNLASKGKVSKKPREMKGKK

[2] = biological target: T2, GTPase-activating protein 1 (aa 1419-1657) (UniProt P46940 1419-1657); test: yeast two-hybrid
T2 construct: range 1419-1657; also called IQGAP1; IQGAP
T2 sequence (looked up): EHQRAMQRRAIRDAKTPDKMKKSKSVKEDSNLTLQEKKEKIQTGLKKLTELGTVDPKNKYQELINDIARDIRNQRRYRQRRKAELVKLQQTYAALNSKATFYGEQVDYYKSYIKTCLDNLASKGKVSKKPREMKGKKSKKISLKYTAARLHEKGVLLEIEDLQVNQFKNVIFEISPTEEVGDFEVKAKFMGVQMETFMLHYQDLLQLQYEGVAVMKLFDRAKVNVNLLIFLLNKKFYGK

[3] = biological target: T3, serum deprivation response (aa 75-258) (UniProt O95810 75-258); test: yeast two-hybrid
T3 construct: range 75-258
T3 sequence (looked up): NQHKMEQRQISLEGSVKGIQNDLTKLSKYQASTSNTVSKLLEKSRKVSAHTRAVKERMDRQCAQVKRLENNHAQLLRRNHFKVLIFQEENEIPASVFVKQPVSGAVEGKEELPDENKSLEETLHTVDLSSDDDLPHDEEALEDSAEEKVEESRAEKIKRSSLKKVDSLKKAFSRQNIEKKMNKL

[4] = biological target: T4, hook2 protein (aa 201-559) (UniProt Q96ED9 201-559); test: yeast two-hybrid
T4 construct: range 201-559
T4 sequence (looked up): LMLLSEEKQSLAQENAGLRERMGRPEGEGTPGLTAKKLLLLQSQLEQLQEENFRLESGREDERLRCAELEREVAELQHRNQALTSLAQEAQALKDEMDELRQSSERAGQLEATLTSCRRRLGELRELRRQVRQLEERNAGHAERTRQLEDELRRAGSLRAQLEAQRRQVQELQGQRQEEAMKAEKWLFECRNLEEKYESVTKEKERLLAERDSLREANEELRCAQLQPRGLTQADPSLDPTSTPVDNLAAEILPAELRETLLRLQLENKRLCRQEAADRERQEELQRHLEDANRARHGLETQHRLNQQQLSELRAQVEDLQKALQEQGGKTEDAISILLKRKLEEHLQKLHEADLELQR

[5] = biological target: T5, intersectin 1 (aa 210-633) (UniProt Q15811 210-633); test: yeast two-hybrid
T5 construct: range 210-633
T5 sequence (looked up): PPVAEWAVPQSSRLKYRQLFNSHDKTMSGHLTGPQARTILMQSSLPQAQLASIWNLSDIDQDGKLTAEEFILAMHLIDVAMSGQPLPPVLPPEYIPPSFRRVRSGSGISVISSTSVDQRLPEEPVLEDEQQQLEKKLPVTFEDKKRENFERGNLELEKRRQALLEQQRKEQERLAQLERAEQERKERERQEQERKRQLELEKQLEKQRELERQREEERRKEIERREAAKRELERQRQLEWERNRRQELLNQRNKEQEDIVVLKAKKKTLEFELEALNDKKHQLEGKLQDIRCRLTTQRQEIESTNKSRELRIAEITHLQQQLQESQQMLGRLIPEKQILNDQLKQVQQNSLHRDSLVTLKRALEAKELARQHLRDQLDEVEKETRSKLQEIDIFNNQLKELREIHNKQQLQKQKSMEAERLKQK

[6] = biological target: T6, catenin, GenBank U96136 (aa 684-1148) (UniProt Q9UQB3 684-1148); test: yeast two-hybrid
T6 construct: range 684-1148
T6 sequence (looked up): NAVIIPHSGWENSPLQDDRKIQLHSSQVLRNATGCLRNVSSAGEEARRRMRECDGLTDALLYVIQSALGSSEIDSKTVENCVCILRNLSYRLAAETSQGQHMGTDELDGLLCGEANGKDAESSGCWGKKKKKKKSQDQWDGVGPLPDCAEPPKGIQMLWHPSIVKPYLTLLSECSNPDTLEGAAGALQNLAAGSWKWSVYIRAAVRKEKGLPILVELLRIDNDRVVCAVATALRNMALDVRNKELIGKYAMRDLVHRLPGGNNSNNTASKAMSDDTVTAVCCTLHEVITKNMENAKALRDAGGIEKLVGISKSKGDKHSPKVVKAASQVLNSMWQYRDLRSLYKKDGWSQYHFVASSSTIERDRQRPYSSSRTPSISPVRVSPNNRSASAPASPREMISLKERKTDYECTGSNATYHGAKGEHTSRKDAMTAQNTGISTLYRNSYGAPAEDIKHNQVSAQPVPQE

[7] = biological target: T7, VPS28 protein (aa 27-221) (human, UniProt Q9UK41 27-221); test: yeast two-hybrid, breast and prostate cancer library, bait Tsg101 240-391
T7 sequence (looked up): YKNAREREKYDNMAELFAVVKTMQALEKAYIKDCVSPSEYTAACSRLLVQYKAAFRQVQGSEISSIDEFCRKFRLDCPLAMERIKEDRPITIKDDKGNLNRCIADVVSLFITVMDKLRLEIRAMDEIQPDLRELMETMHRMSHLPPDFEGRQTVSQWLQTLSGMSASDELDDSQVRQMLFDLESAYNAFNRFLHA

Measured: binding result

B1: Tsg101 (aa 240-391) (other, human, UniProt Q99816 240-390, looked up)
chain: WRMKEEMDRAQAELNALKRTEEDLKKGHQKLEEMVTRLDQEVAEVDKNIELLKKKDEELSSALEKMENQSENNDIDEVIIPTAPLYKQILNLYAEENAIEDTIFYLGEALRRGVIDLDVFLKHVRLLSRKQFQLRALMQKARKTAGLSDLY
notes: range 240-391; also called C-terminal fragment of Tsg101; amino acid residues 240-390
binds: all assays above
